Results on 38 variants are retold here after the RNAGym collection of RNA variant scans (doi:10.7554/elife.80360).

First the molecules themselves.
B1: Hairpin Ribozyme (parent)
chain: GUCCUCUUUCACGUGCGCGUGAAAGAGAGAAGUGAACCAGAGAAACACACGUUGUGGUAUAUUACCUGGUA

Variants of B1 are the subject of the series. Nature of the series: self-cleavage, relative activity (ratio to wild type); higher = more cleavage; co-transcriptional.
In the case of GUCCUCUUUCACGUGAGCGUGAAAGAGAGAAGUGAACCAGAGAAACACACGUUGUGGUAUAUUACCGGGUA [C16A U67G], the self-cleavage came out at 0.182.
In the case of GUCCUCUUUCACGUGGGCGUGAAAGAGAGAAGUGAACUAGAGAAACACACGUUGUGGUAUAUUACCUGGUA [C16G C38U], the self-cleavage is 0.167.
The figure for GUCCUCUUUCACGUGGGCGUGAAAGAGAGAAGUGAACCAGAGAAACACACGUUGUUGUAUAUUACCUGGUA [C16G G56U] is 0.187; for GUCCUCUUUCACGUGAGCGUGAAAGAGAGAAGUGAACCAGAGAAACACACAUUGUGGUAUAUUACCUGGUA [C16A G51A] it is 0.943; for GUCCUCUUUCACGUGAGCGUGAAAGAGAGAAGUGAACCAGAGAAACACACCUUGUGGUAUAUUACCUGGUA [C16A G51C] it is 0.714.
The figure for GUCCUCUUUCACGUGGGCGUGAAAGAGAGAAGUGAACCAGAUAAACACACGUUGUGGUAUAUUACCUGGUA [C16G G42U] is 0.247; for GUCCUCUUUCACGUGGGCGUGAAAGAGAGAAGUGAACCAGAAAAACACACGUUGUGGUAUAUUACCUGGUA [C16G G42A] it is 0.251; for GUCCUCUUUCACGUGGGCGUGAAAGAGAGAAGUGCACCAGAGAAACACACGUUGUGGUAUAUUACCUGGUA [C16G A35C] it is 0.659.
Turning to GUCCUCUUUCACGUGGGCGUGAAAGAGAGAAGUGUACCAGAGAAACACACGUUGUGGUAUAUUACCUGGUA [C16G A35U], the self-cleavage was 0.693.
The figure for GUCCUCUUUCACGUGAGCGUGAAAGAGAGAAGUGAACCAUAGAAACACACGUUGUGGUAUAUUACCUGGUA [C16A G40U] is 0.147; for GUCCUCUUUCACGUGGGCGUGAAAGAGAGAAGUGAACCAGAGAAACACACGAUGUGGUAUAUUACCUGGUA [C16G U52A] it is 1.09.
On to GUCCUCUUUCACGUGGGCGUGAAAGAGAGAAGUGAACCAAAGAAACACACGUUGUGGUAUAUUACCUGGUA [C16G G40A], for which the self-cleavage came out at 0.198.
For GUCCUCUUUCACGUGGGCGUGAAAGAGAGAAGUGAACCAGAGAAACACACGUUAUGGUAUAUUACCUGGUA [C16G G54A] the value was 0.485; for GUCCUCUUUCACGUGGGCGUGAAAGAGAGAAGUGAACCAGAGAAACACACGUUUUGGUAUAUUACCUGGUA [C16G G54U], 0.493; for GUCCUCUUUCACGUGGGCGUGAAAGAGAGAAGUGAACCAGAGAAACACACGUUGUGGUAUAUUACCUGCUA [C16G G69C], 0.197.
For GUCCUCUUUCACGUGAGCGUGAAAGAGAGAAGUGAACCAGAAAAACACACGUUGUGGUAUAUUACCUGGUA [C16A G42A] the value was 0.366; for GUCCUCUUUCACGUGGGCGUGAAAGAGAGAAGUGAACCAGAGAAACACACGUUGUGGUUUAUUACCUGGUA [C16G A59U], 0.145.
The figure for GUCCUCUUUCACGUGGGCGUGAAAGAGAGAAGUGAAGCAGAGAAACACACGUUGUGGUAUAUUACCUGGUA [C16G C37G] is 0.386; for GUCCUCUUUCACGUGGGCGUGAAAGAGAGAAGUGAACCAGAGAAACACACGUUGUGGUAUAUUACCUGGUC [C16G A71C] it is 1.35; for GUCCUCUUUCACGUGGGCGUGAAAGAGAGAAGUGAACCAGAGAAACACACGUUGUGGUAUAUUACCUGGUG [C16G A71G] it is 1.05.
Take GUCCUCUUUCACGUGGGGGUGAAAGAGAGAAGUGAACCAGAGAAACACACGUUGUGGUAUAUUACCUGGUA [C16G C18G]: the self-cleavage is 0.863.
Turning to GUCCUCUUUCACGUGGGUGUGAAAGAGAGAAGUGAACCAGAGAAACACACGUUGUGGUAUAUUACCUGGUA [C16G C18U], the self-cleavage worked out at 0.823.
For the variant GUCCUCUUUCACGUGAGCGUGAAAGAGAGAAGUGAACCAGAGAAACACACGUCGUGGUAUAUUACCUGGUA [C16A U53C], the self-cleavage came to 0.753.
The figure for GUCCUCUUUCACGUGGGCGUGAAAGAGAGAAGUGAACCAGAGAACCACACGUUGUGGUAUAUUACCUGGUA [C16G A45C] is 0.152; for GUCCUCUUUCACGUGGGCGUGAAAGAGAGAAGUGAACCAGAGAAUCACACGUUGUGGUAUAUUACCUGGUA [C16G A45U] it is 0.229.
On to GUCCUCUUUCACGUGAGCGUGAAAGAGAGAAGUGAACCAGAGAAACACACGUUGAGGUAUAUUACCUGGUA [C16A U55A], for which the self-cleavage was determined as 0.221.
Consider GUCCUCUUUCACGUGAGCGUGAAAGAGAGAAGUGAACCAGAGAAACACACGUUGGGGUAUAUUACCUGGUA [C16A U55G], for which the self-cleavage was 0.232.
With GUCCUCUUUCACGUGGGCGUGAAAGAGAGAAGUGAACCAGAGAGACACACGUUGUGGUAUAUUACCUGGUA [C16G A44G], the self-cleavage turned out to be 0.0556.
Consider GUCCUCUUUCACGUGGGCGUGAAAGAGAGAAGUGAACCAGAGAAACACACGUUGUGGUAUAUUAGCUGGUA [C16G C65G], for which the self-cleavage stood at 0.163.
The figure for GUCCUCUUUCACGUGGGCUUGAAAGAGAGAAGUGAACCAGAGAAACACACGUUGUGGUAUAUUACCUGGUA [C16G G19U] is 0.719; for GUCCUCUUUCACGUGGGCCUGAAAGAGAGAAGUGAACCAGAGAAACACACGUUGUGGUAUAUUACCUGGUA [C16G G19C] it is 0.618.
As to GUCCUCUUUCACGUGAGCGAGAAAGAGAGAAGUGAACCAGAGAAACACACGUUGUGGUAUAUUACCUGGUA [C16A U20A], the self-cleavage came to 0.743.
With GUCCUCUUUCACGUGAGCGGGAAAGAGAGAAGUGAACCAGAGAAACACACGUUGUGGUAUAUUACCUGGUA [C16A U20G], the self-cleavage is 0.812.
Consider GUCCUCUUUCACGUGGGCGUGAAAGAGAGAAGUGAACCAGAGAAACACACUUUGUGGUAUAUUACCUGGUA [C16G G51U], for which the self-cleavage was determined as 0.803.
For GUCCUCUUUCACGUGGGCGUGAAAGAGAGAAGUGAACCAGAGAAACACACCUUGUGGUAUAUUACCUGGUA [C16G G51C], the self-cleavage worked out at 0.564.
On to GUCCUCUUUCACGUGGGCGUGUAAGAGAGAAGUGAACCAGAGAAACACACGUUGUGGUAUAUUACCUGGUA [C16G A22U], for which the self-cleavage amounted to 0.691.
With GUCCUCUUUCACGUGGGCGUGCAAGAGAGAAGUGAACCAGAGAAACACACGUUGUGGUAUAUUACCUGGUA [C16G A22C], the self-cleavage worked out at 0.604.
Consider GUCCUCUUUCACGUGAGCGUGAAAGAGAGAAGUGAACCAGAGAAACACACGUUGUUGUAUAUUACCUGGUA [C16A G56U], for which the self-cleavage turned out to be 0.151.
